Results on three molecules are retold here after patent US20030232052A1 (CALIFORNIA INSTITUTE OF TECHNOLOGY, published 2003).

Experiment [1] concerns the target mutant Htt exon 1 with 103 polyQ repeats fused to EGFP (UniProt P42858). Briefly: cell-based or functional assay.
For experiment [2] the target is unchanged. Briefly: cell-based or functional assay. The source holds these as a separate data set.
For experiment [3], the target named is T1, mutant Htt exon 1 with 103 polyQ repeats fused to EGFP (UniProt P42858 1-88; P42212 1-238 = GFP).
T1 construct: Expressed in 293 cells; Order of pieces follows 'Htt exon 1-EGFP'; also called PQ103
Kind of experiment: coimmunoprecipitation from 293 cell lysates with anti-Flag Ab, blot with anti-HD1-17.
Method: The scFvs and IκBα in Triton X-100 cell extracts were precipitated with anti-Flag Ab, and the precipitates were subjected to SDS-PAGE.
Briefly, cells were harvested 24 hours after transfection and lysed by sonication in buffer A (25 mM Hepes, pH 7.4/2.5 mM MgCl₂/50 mM NaCl/1 mM EDTA/1% Triton X-100). After clearing the lysates by centrifugation at 14,300 rpm (Eppendorf microcentrifuge) for 10 minutes at 4° C., 200 μg of each lysate was incubated at 4° C. with rocking for 2 hours with a 40-μl slurry of anti-Flag Ab coupled to protein A beads. The beads were then washed five times in buffer A by using centrifugation at 5,000 rpm, and the complexes were resolved on SDS-PAGE. […] Secondary antibodies conjugated to horseradish peroxidase (HRP) were used to detect the reactive protein bands by enhanced chemiluminescence (Santa Cruz Biotechnology).

Where two headings read alike, the source gives them in different places.

Take “Flag-tagged MW2 scFv expressed in 293 cells”: in experiment [1], the SDS-insoluble aggregated Htt, scanned band at the top of the gel (no scFv: 48.8) (arbitrary units) amounted to 54.3 and the increase in mutant Htt-induced TUNEL staining (TUNEL+ cells), 293 cells came to 67%.

B1: Flag-tagged MW7 scFv expressed in 293 cells (scFv)
scFv: MDYKDDDDKVAQVKLQESGGGLVQPGGSMKLSCAASGFTFSDAWMDWVRQSPEKGLSGVAEIRSKANNHATYYAESVKGRFTISRDDSKSSVYLQMNSLRAEDTGIYYCIYAGFAYWGQGTTVTVSSGGGGSGGGGSGGGGSDIELTQSPSSLAMSVGQKVTMSCKSSQSLLNSSNQKNYLAWYQQKPGQSPKLLVYFASTRESGVPDRFIGSGSGTDFTLTISSVQAEDLADYFCQQHYSTPWTFGGGTKLEIK
Consider B1, for which the SDS-insoluble aggregated Htt, scanned band at the top of the gel (no scFv: 48.8) (arbitrary units) in experiment [2] stood at 0.2.

B2: Flag-tagged IκBα (other, UniProt P25963 1-317, looked up, not shown: small tags and cut ends)
chain: MFQAAERPQEWAMEGPRDGLKKERLLDDRHDSGLDSMKDEEYEQMVKELQEIRLEPQEVPRGSEPWKQQLTEDGDSFLHLAIIHEEKALTMEVIRQVKGDLAFLNFQNNLQQTPLHLAVITNQPEIAEALLGAGCDPELRDFRGNTPLHLACEQGCLASVGVLTQSCTTPHLHSILKATNYNGHTCLHLASIHGYLGIVELLVSLGADVNAQEPCNGRTALHLAVDLQNPDLVSLLLKCGADVNRVTYQGYSPYQLTWGRPSTRIQQQLGQLTLENLQMLPESEDEESYDTESEFTEFTEDELPYDDCVFGGQRLTL
notes: Order of pieces follows the name Flag-IκBα; also called Flag-IκBα
On to B2, for which, in experiment [3], the binding result was “no binding”.
